Publication PMC9841405
Positions count from the first letter of the chain named.

T1: AtTCP10-DBD RR mutant (UniProt O82277 1-87, R46A;R48A)
T1 sequence: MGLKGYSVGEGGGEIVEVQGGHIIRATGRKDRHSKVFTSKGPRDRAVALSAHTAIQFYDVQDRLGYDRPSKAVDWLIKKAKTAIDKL

T2: AtTCP10-DBD DRH RR mutant (UniProt O82277 1-87, D31A;R32A;H33A;R46A;R48A)
T2 sequence: T1 sequence with D31A, R32A, H33A

T3: AtTCP10-DBD DRH mutant (UniProt O82277 1-87, D31A;R32A;H33A)
T3 sequence: T1 sequence with D31A, R32A, H33A, A46R, A48R

T4: AtTCP10-DBD (UniProt O82277 1-87)
T4 sequence: T1 sequence with A46R, A48R

B1: three-site class II DNA (dsDNA)
DNA 1: ATGTGGTCCCCACT
DNA 2: TAGTGGGGACCACA
B2: two-site class II DNA (dsDNA)
DNA 1: ATGTGGTCCCGTGT
DNA 2: TACACGGGACCACA
B3: one-site class II DNA (dsDNA)
DNA 1: ATAGAGTCCCGTGT
DNA 2: TACACGGGACTCTA
B4: one-site class I DNA (dsDNA)
DNA 1: ATAGAGGTCCGTGT
DNA 2: TACACGGACCTCTA
B5: three-site class I DNA (dsDNA)
DNA 1: ATGTGGGTCCCACT
DNA 2: TAGTGGGACCCACA
B6: two-site class I DNA (dsDNA)
DNA 1: ATGTGGGTCCGTGT
DNA 2: TACACGGACCCACA

What was measured:
[1] = molecular target: T1, AtTCP10-DBD RR mutant; assay: ITC
[2] = molecular target: T2, AtTCP10-DBD DRH RR mutant; assay: ITC
[3] = molecular target: T3, AtTCP10-DBD DRH mutant; assay: ITC
[4] = molecular target: T4, AtTCP10-DBD; assay: ITC
[5] = molecular target: T3, AtTCP10-DBD DRH mutant; assay: EMSA
[6] = molecular target: T5, AtTCP15-DBD (UniProt Q9C9L2 51-113); assay: EMSA
[7] = molecular target: T5, AtTCP15-DBD; assay: ITC

Binder | Kd [4] | binding result [5] | Kd [7] | also measured
B1 | 8.5 nM |  |  | Kd [1]: 1130 nM; Kd [2]: 1620 nM; Kd [3]: 353 nM
B2 | 351 nM | binds |  | 
B3 | 366 nM | binds |  | 
B4 |  |  |  | binding result [6]: binds
B5 |  |  | 38.3 nM | 
B6 |  |  | 109 nM | 
